Tested on: MS2 coat protein
Assay: apparent KD of MS2 coat protein; higher = weaker reporter binding
Settings: Eterna round: R107
Summary of the method: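 Each design's apparent KD comes from the median of binding-curve fits to its normalised clusters. Those clusters carried RNA switches transcribed on-chip from Illumina sequencing clusters. SNAP-549-labelled MS2 coat protein was titrated onto them in twofold steps (0.7 or 1.5 nM to 3 µM; per step 0.8–1.5 h down to 10–20 min). Conditions were 100 mM Tris-HCl pH 7.5, 80 mM KCl, 4 mM MgCl2, without or with constant ligand.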

[1] = input ligand: theophylline 20 uM
[2] = input ligand: theophylline 2 mM
[3] = input ligand: tryptophan 2.4 mM

Sequence | apparent KD of MS2 coat protein (input ligand: arginine 13.2 mM) [nM] | apparent KD of MS2 coat protein [1] [nM] | apparent KD of MS2 coat protein [2] [nM] | apparent KD of MS2 coat protein [3] [nM] | apparent KD of MS2 coat protein (input ligand: none) [nM]
UCUGUUUGCUUUGUUUGUUUCUUCUUUGAGCGAGGACCGGUACGGCCGCCACUCGGGUUACAUGAGGAUCACCCAUGUGGUUUCU [Interesting] | 72.3 | 163 | 149 | – | –
UGACAUUGCUCAGAUACCAGACAUGAGGAUCACCCAUGUGCCAAAUACGUACAAAUAAAUGUCCCUUGGCAGCUGAGCAAUGUCU [TheoBX 12 #MS2Left #Theo2] | 16.2 | 22.2 | – | 14.4 | –
UGAGAGGGCAGAAGGAGCGACAUGAGGAUCACCCAUGUCUCCCGUUAUGGGAGUUCUUUAGGUCAGGUAGGUCGCUGGCCUCUCA [#1 Exclusion - Arginine B Attempt #9 (Inspired by Omei)] | 54 | 135 | 146 | 99.5 | 117
UGAUAUAGGGAGCCGUAUCAGAAACCUGAAGGAGCGCCGGAAAAGGCAGGUAGGUCGCGGGAACAUGAGGAUCACCCAUGUAUUC [dancer_small] | 17.4 | 21.2 | 19.2 | 18.3 | 19
UGAUAUGUAGGAAGGAGCGCAUACUUCACAUGAGGAUCACCCAUGUCAAGACGUGAGUCAGUGCAGGUAGGUCGCCUAGUUAUGA [Same State - Arginine B (Freestyle 20)] | 30.2 | 41 | 36.9 | 36 | 44.9
UGCAUUAUACAUGGAUCACCCAUGUAGACACGAGGACCGGUACGGCCGCCACUCGGAAGAGGGAACAUGAGGAUCACCCAUGUGA [Try A SS t1] | 25.6 | 73.1 | 55 | – | –
UGCCUAAAGUCGGCCGCCACUGAUGGUAUCCUCUCCUCGAGGUCACACAUGAGGAUCACCCAUGUCAGGACCGGGACUAGUGAGA [theeternabot_exclusion_MS2_Trp_B_36] | 7.11 | 9.65 | 7.48 | – | –
UGGUACAUGGCGGCCGCCACUUCACGUAAAAUAAAAACUUGAGGAACACCCAAGUAAUAAGUUGGGAGGACCGGGUCAUGUACCU | 35.3 | 41.7 | 39.1 | 26.1 | 36.2
UGGUACAUGGCGGCCGCCACUUCACGUAAAAUAAAAACUUGAGGAUCACCCAAGUAAUAAGUUGGGAGGACCGGGUCAUGUACCU | 18.4 | 23.2 | 19.2 | 14 | –
UGGUUUCGGUCAAUCACCGGUCCCUGGGAAGGAGCGGACUCAUGUCCAGGUAGGUCGCCCAGACAUGAGGAUCACCCAUGUGACA [Tiusdiin] | 32.5 | 409 | 142 | 24.1 | 174
UGUAACAUGAGGAUCACCCAUGUGAGUGAUACCAGAUUAGUAGUAGUCCCUUGGCAGCACAUUGGGCGAGUGUAUAGUCUAUGCG [Same State - Theophylline A (Freestyle 11)] | 94.6 | 219 | – | 155 | –
UGUAACAUGAGGAUCACCCAUGUGCACGAUACCAGCUUCGAAAGAGGCCCUUGGCAGCGUAUGCGUAAGCUGUAUAAUAUAUAUC [#28 SameState-TheophyllineA] | 11.1 | 14.4 | – | 10.6 | –
UGUAUGGACUGAAGGAGCGGGUAAAUAACUUGAGGAUCACCCAGGUAAAAGGCGAAAGCCACCCAGGUAGGUCGCAGUCCAUACU | 23.6 | 32.1 | 29.2 | 25.5 | 21.1
UGUAUGGACUGAAGGAGCGGGUAAUAAACCUGAGGAUCACCCAGGUAAUAGGCGAAAGCCACCCAGGUAGGUCGCAGUCCAUACU | 9.98 | 16.1 | 15.1 | 13.2 | 14.1
UGUAUGGACUGAAGGAGCGGGUUGAUAUCAUGAGGAUCACCCAUGGAAAAGGCGAAAGCCGCCCAGGUAGGUCGCAGUCCAUACU | 25.1 | 38 | 37.5 | 26 | –
UGUAUGGACUGAAGGAGCGGUAGAUAACCUGAGGAUCACCCGGGUAAUAAAGGCGAAAGCCACCAGGUAGGUCGCAGUCCAUACU | 93.3 | 173 | 321 | 262 | 206
UGUAUGUGAUCUGAUACCAGCUUUGAUAACCUGAGGAUCACCCUGGUAAAGGCGAAAGCCAGCCCUUGGCAGCAGAUCGCAUACU | 69.8 | 39.6 | 20.7 | 49.6 | 49.1
UGUAUGUGAUCUGAUACCAGUCCAACUGGUAAAAGAUGAGGAUCACCCAUCUAAAAUUGGGACCCUUGGCAGCAGAUCGCAUACU | 91.7 | 122 | 13.7 | 264 | 264
UGUAUGUGAUGGGAUACCAGACCAGCUGGUGAUACAUGAGGAUCACCCAUGUAAAUUUGGGUCCCUUGGCAGCCCAUCGCAUACU [SSTheo B #25] | 32.4 | 68 | 63.7 | 23.9 | 22
UGUAUGUGAUUUGAUACCAGACCAGCUGGUGGUACUUGAGGAACACCCAAGUAGGUUUGGGUCCCUUGGCAGCAAAUCGCAUACU [SS Theo B #24 Ms11] | 110 | 160 | 29.9 | 138 | –

Sequence | apparent KD of MS2 coat protein (input ligand: arginine 13.2 mM) [nM] | apparent KD of MS2 coat protein [1] [nM] | apparent KD of MS2 coat protein [2] [nM] | apparent KD of MS2 coat protein [3] [nM] | apparent KD of MS2 coat protein (input ligand: none) [nM]
UGUAUGUGAUUUGAUACCAGACCAGCUGGUGGUGCAUGAGGAACACCCAUGCAGGUUUGGGUCCCUUGGCAGCAAAUCGCAUACU [SS Theo B #24 Ms19] | 149 | 150 | 33 | 130 | –
UGUAUGUGAUUUGAUACCAGACCAGCUGGUGGUGCAUGAGGAUCACCCAUGCAGGUUUGGGUCCCUUGGCAGCAAAUCGCAUACU [SS Theo B #24 Ms17] | 72.5 | 135 | 21.6 | 129 | 119
UGUAUGUGAUUUGAUACCAGACCAGCUGGUGUUACAAGAGGAUCACCCUUGUAGGUUUGGGUCCCUUGGCAGCAAAUCGCAUACU [SS Theo B #24 Ms4] | 94.2 | 135 | 17.5 | 190 | 136
UGUAUGUGAUUUGAUACCAGACCAGCUGGUGUUAUAUGAGGAUCACCCAUAUAGGUUUGGGUCCCUUGGCAGCAAAUCGCAUACU [SS Theo B #24 Ms14] | 40.7 | 38.8 | 17.4 | 32.5 | 28.6
UGUAUUACGAAAGUAGUACAUCGUGUUCGACGAGGACCGGUACGGCCGCCACUCGGACAUGAGGAUCACCCAUGUAGCGAAAGCU [Tryptophan A 25] | 93.8 | 354 | 491 | – | –
UGUGUCGUCUGAAGGAGCGGCUCUUGAUCCUCGUGAGACAUGAGGAUCACCCAUGUCUCGAGCCAGGUAGGUCGCAGGCGGCACA [#26 Exclusion - Arginine B] | 7.08 | 12.8 | 13.6 | 14.1 | 16.2
UUAAUCAAUAUAGAAAACUAUAUUGCAGAAGGAGCGUGAUAAAACACAGGUAGGUCGCUGAAGGGAACAUGAGGAUCACCCAUGU [AstrosSSArgA#5] | 24.8 | 32.5 | 26.3 | 26.2 | 23.4
UUAAUCAGGUUAGAAAACUAAUUUGCAGAAGGAGCGUGAUAAAACACAGGUAGGUCGCUGAAGGGAACAUGAGGAUCACCCAUGU [AstrosSSArgA#10] | 22.9 | 32.7 | 28.5 | 26 | 26.3
UUAAUGGAGCUUUAAUUUACGAUUUCUGAUACCAGUGUUUCAUUUCACCCUUGGCAGCAGUGACAUGAGGAUCACCCAUGUAAUA [JR_Nu_SSTheophyA_Sub022] | 23.7 | 35.5 | – | 26.4 | –
UUAGAUAUGACAGAUACCAGCGUGUUGUAGAACAUGAGGAUCACCCAUGUAGUGAUCGAGCGCCCUUGGCAGCUGGUGUGUUUGG [7.S] | 163 | 303 | – | 319 | –
UUAUAUAUGCGAAGGAGCGGGAAAUAUAUAUAUAUAAUCCUAACAUGAGGAUCACCCAUGUCCCAGGUAGGUCGCGCAUAUAUAG [12.C] | 38 | 117 | 76.6 | 53.4 | 79
UUAUAUAUGCGAAGGAGCGGGAAAUAUAUAUAUAUAAUCCUAACAUGAGGAUCACCCAUGUCCCAGGUAGGUCGCGCAUAUAUGG [12.E] | 74.2 | 76.8 | 95.1 | 75.7 | 84.4
UUAUGCAGGUCGGCCGCCACUACACACAUGAGGAUCACCCAUGUAGUUACUGGGUGAAGUGGCAGUAGGACCGGGACCCGCACAC [Brourdmod22] | 226 | 561 | 715 | 258 | 485
UUAUUUAACGGAAGGAGCGCGGAAAUAAAAGUGGGUAAACAUGAGGAUCACCCAUGUAAACCGCAGGUAGGUCGCCGAUAUUUAU [AstrosEXyARgB#2] | 37 | 93.9 | 95.4 | 59.4 | 76.9
UUAUUUAUAUUAGAUACCAGUUUAAUGGCCGCAAAUCCUGACAUGAGGAUCACCCAUGUAAGCCCUUGGCAGCUGGUAUGGGUUU [XTheo B #26] | 25.2 | 25.2 | – | 20.5 | –
UUCAGCUAGUCGGCCGCCACUACCUGAGGAUCACCCUGGUAAUCCUAACACUGCUUCGGCAGUGGUAGGACCGGGACUAGCUGAG | 27.7 | 39.7 | 32.6 | 225 | 28.2
UUCAGCUAGUCGGCCGCCACUAUCUGAGGAUCACCCAGGUAAUCCUAACACUGCUUCGGCAGUGGUAGGACCGGGACUAGCUGAG | 8.18 | 26.3 | 20 | 10.6 | 14.5
UUCGUUGGCGAUCUGGGUUUACCAGAUCGGCGAGGACCGGUACGGCCGCCACUCGUGUUUUCUUUACAUGAGGAUCACCCAUGUU [SSTA #3] | 16.9 | 25.3 | 25.5 | – | –
UUGGGUUUGCGAAGGAGCGGGAAAUAUAUAUAUAUAAUCCUAACAUGAGGAUCACCCAUGUCCCAGGUAGGUCGCGCAGGUUUGG [12.L] | 58.1 | 81.8 | 73.2 | 58.7 | 54.2
UUGUUGUUUGGAAGGAGCGUGGAUGAGUGAGAACAUGAGGAUCACCCAUGUUGUAUGAUACCGCAGGUAGGUCGCCGGGUGGUGG [11.aB] | 16.9 | 39.6 | 21.5 | 17.5 | 18.1
